Starred links: 1 amine or outer side, 2 acyl side, 3 side chain; linkers in the order of their positions; H or OH if unused. Positions of bridges follow the written chain, without caps; N, C: chain ends. Non-standard residues stand in square brackets, D forms with d. No end group written: not given here. KCOmeglumine = N6-(methyl-((2S,3R,4R,5R)-2,3,4,5,6-pentahydroxyhexyl)carbamoyl)-L-lysine, CN(C[C@H](O)[C@@H](O)[C@H](O)[C@H](O)CO)C(=O)NCCCC[C@H](N[*:1])C(=O)[*:2]; KCOpipzaa = N6-(4-(carboxymethyl)piperazine-1-carbonyl)-L-lysine, O=C(NCCCC[C@H](N[*:1])C(=O)[*:2])N1CCN(CC(=O)[*:3])CC1; Trp(7-aza) = N[C@@H](Cc1c[nH]c2ncccc12)C(=O)O; 1Nal = N[C@@H](Cc1cccc2ccccc12)C(=O)O; Gly(NCH2CH2Ph) = O=C(O)CNCCc1ccccc1; 4Pal = N[C@@H](Cc1ccncc1)C(=O)O
Legend:
[1] = molecular target: T1, recombinant human TGF-β1 (R&D systems) (human, UniProt P01137 279-390); experiment: SPR, TGF-β1 immobilised, single cycle kinetics
T1 construct: Bought protein; immobilised on a CM3 chip (SPR) or on Dynabeads (ELISA), added to cells in the SBE reporter assay; also called TGF-β1 beads
T1 sequence (P01137 279-390 limits assumed): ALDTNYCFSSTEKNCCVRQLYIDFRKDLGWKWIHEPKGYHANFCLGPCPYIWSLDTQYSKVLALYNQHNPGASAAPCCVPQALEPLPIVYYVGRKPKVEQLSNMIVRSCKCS
Experimental: Subsequently, 50 μL of 60 mM EDC solution (Global Life Science Technologies Japan Co., Ltd.) and 50 μL of 650 mM NHS solution (Global Life Science Technologies Japan Co., Ltd.) were mixed. Next, the reaction was carried out at a flow rate of 10 μL/min for 420 seconds. Then, 150 μL of 0.2 μM TGF-β solution diluted in 10 mM acetic acid solution (pH 5.0) was prepared and reacted at a flow rate of 10 μL/min for 420 seconds to immobilize TGF-β on the CM3 sensor chip. TGF-β was human-derived TGF-β1 or β2 (recombinant human TGF-β1, 2) and was obtained from R&D systems. After immobilization, capping was performed by reacting with 1.0 M ethanolamine aqueous solution (Global Life Science Technologies Japan Co., Ltd.) at a flow rate of […] for 420 seconds.
A liquid prepared by dissolving each peptide at 10 mM in DMSO solution was diluted with running buffer to prepare a peptide-dissolved solution at a final concentration of 10 μM. Subsequently, 50 nM, 25 nM, 12.5 nM, 5 nM, and 2.5 nM peptide solutions were prepared. Using the above samples, the kinetics of each peptide against TGF-β was obtained by SPR measurement.
The kinetics evaluation model was Single Cycle Kinetics, and curve fitting was performed using Biacore T200 Evaluation Software Version 3.0 (Global Life Science Technologies Japan Co., Ltd.). The binding of various peptides to TGF-β was evaluated by performing least-squares curve fitting on the obtained sensorgram to calculate the KD value.

[2] = molecular target: T1, recombinant human TGF-β1 (R&D systems); experiment: cell-based or functional assay
[3] = molecular target: T1, recombinant human TGF-β1 (R&D systems); experiment: cell-based or functional assay; remark: listed apart in the source

Binder | Kd [1] [nM] | SBE reporter % inhibition, peptide 0.075 nM [2] [%] | SBE reporter % inhibition, peptide 0.75 nM [2] [%] | SBE reporter % inhibition, peptide 7.5 nM [2] [%] | SBE reporter % inhibition, peptide 75.0 nM [2] [%] | SBE reporter % inhibition, peptide 0.062 nM [3] [%] | SBE reporter % inhibition, peptide 0.185 nM [3] [%] | SBE reporter % inhibition, peptide 0.56 nM [3] [%] | SBE reporter % inhibition, peptide 1.7 nM [3] [%] | SBE reporter % inhibition, peptide 5.0 nM [3] [%] | SBE reporter % inhibition, peptide 15.0 nM [3] [%]
{CH2CO}-FWVVNVYDD[Gly(NCH2CH2Ph)]V[1Nal]YHVCG (thioether N-16, cyclic peptide; C-terminal G is a linker) [TGFb1_003] | 0.72 | 1.6 | 65.2 | 97.3 | 98.8 | – | – | – | – | – | –
{CH2CO}-F[1Nal]VVNV[4Pal]D[KCOpipzaa][Gly(NCH2CH2Ph)]V[1Nal]YHVCG-NH2 (thioether N-16; SMILES CC(C)[C@@H]1NC(=O)CN(CCc2ccccc2)C(=O)[C@H](CCCCNC(=O)N2CCN(CC(=O)O)CC2)NC(=O)[C@H](CC(=O)O)NC(=O)[C@H](Cc2ccncc2)NC(=O)[C@H](C(C)C)NC(=O)[C@H](CC(N)=O)NC(=O)[C@H](C(C)C)NC(=O)[C@H](C(C)C)NC(=O)[C@H](Cc2cccc3ccccc23)NC(=O)[C@H](Cc2ccccc2)NC(=O)CSC[C@@H](C(=O)NCC(N)=O)NC(=O)[C@H](C(C)C)NC(=O)[C@H](Cc2c[nH]cn2)NC(=O)[C@H](Cc2ccc(O)cc2)NC(=O)[C@H](Cc2cccc3ccccc23)NC1=O, cyclic peptide; C-terminal G is a linker) [TGFb1_011] | 0.62 | 6.1 | 76.3 | 97.9 | 100 | – | – | – | – | – | –
{CH2CO}-F[1Nal]V[KCOmeglumine]NV[4Pal]DD[Gly(NCH2CH2Ph)]V[1Nal]YHVCG-NH2 (thioether N-16; SMILES CC(C)[C@@H]1NC(=O)CN(CCc2ccccc2)C(=O)[C@H](CC(=O)O)NC(=O)[C@H](CC(=O)O)NC(=O)[C@H](Cc2ccncc2)NC(=O)[C@H](C(C)C)NC(=O)[C@H](CC(N)=O)NC(=O)[C@H](CCCCNC(=O)N(C)C[C@H](O)[C@@H](O)[C@H](O)[C@H](O)CO)NC(=O)[C@H](C(C)C)NC(=O)[C@H](Cc2cccc3ccccc23)NC(=O)[C@H](Cc2ccccc2)NC(=O)CSC[C@@H](C(=O)NCC(N)=O)NC(=O)[C@H](C(C)C)NC(=O)[C@H](Cc2c[nH]cn2)NC(=O)[C@H](Cc2ccc(O)cc2)NC(=O)[C@H](Cc2cccc3ccccc23)NC1=O, cyclic peptide; C-terminal G is a linker) [TGFb1_014] | 0.66 | 0 | 64.8 | 97.2 | 98.8 | – | – | – | – | – | –
{CH2CO}-F[1Nal]VVNV[4Pal]D[KCOmeglumine][Gly(NCH2CH2Ph)]V[1Nal]YHVCG-NH2 (thioether N-16; SMILES CC(C)[C@@H]1NC(=O)CN(CCc2ccccc2)C(=O)[C@H](CCCCNC(=O)N(C)C[C@H](O)[C@@H](O)[C@H](O)[C@H](O)CO)NC(=O)[C@H](CC(=O)O)NC(=O)[C@H](Cc2ccncc2)NC(=O)[C@H](C(C)C)NC(=O)[C@H](CC(N)=O)NC(=O)[C@H](C(C)C)NC(=O)[C@H](C(C)C)NC(=O)[C@H](Cc2cccc3ccccc23)NC(=O)[C@H](Cc2ccccc2)NC(=O)CSC[C@@H](C(=O)NCC(N)=O)NC(=O)[C@H](C(C)C)NC(=O)[C@H](Cc2c[nH]cn2)NC(=O)[C@H](Cc2ccc(O)cc2)NC(=O)[C@H](Cc2cccc3ccccc23)NC1=O, cyclic peptide; C-terminal G is a linker) [TGFb1_015] | 0.59 | 0 | 76.9 | 98.7 | 98.4 | – | – | – | – | – | –
{CH2CO}-F[1Nal]VVNV[4Pal]DD[Gly(NCH2CH2Ph)]V[1Nal][4Pal]HVCG (thioether N-16; not fully specified (C-terminus), cyclic peptide; C-terminal G is a linker) [TGFb1_009] | 0.58 | 2.7 | 53 | 94.8 | 99.6 | – | – | – | – | – | –

Second part, the binder after the results:

Kd [1] [nM] | SBE reporter % inhibition, peptide 0.075 nM [2] [%] | SBE reporter % inhibition, peptide 0.75 nM [2] [%] | SBE reporter % inhibition, peptide 7.5 nM [2] [%] | SBE reporter % inhibition, peptide 75.0 nM [2] [%] | SBE reporter % inhibition, peptide 0.062 nM [3] [%] | SBE reporter % inhibition, peptide 0.185 nM [3] [%] | SBE reporter % inhibition, peptide 0.56 nM [3] [%] | SBE reporter % inhibition, peptide 1.7 nM [3] [%] | SBE reporter % inhibition, peptide 5.0 nM [3] [%] | SBE reporter % inhibition, peptide 15.0 nM [3] [%] | Binder
0.97 | 6.1 | 61 | 97.6 | 100 | – | – | – | – | – | – | {CH2CO}-F[1Nal]VVNV[4Pal]DD[Gly(NCH2CH2Ph)]V[1Nal]YH[KCOmeglumine]CG-NH2 (thioether N-16; SMILES CC(C)[C@@H]1NC(=O)CN(CCc2ccccc2)C(=O)[C@H](CC(=O)O)NC(=O)[C@H](CC(=O)O)NC(=O)[C@H](Cc2ccncc2)NC(=O)[C@H](C(C)C)NC(=O)[C@H](CC(N)=O)NC(=O)[C@H](C(C)C)NC(=O)[C@H](C(C)C)NC(=O)[C@H](Cc2cccc3ccccc23)NC(=O)[C@H](Cc2ccccc2)NC(=O)CSC[C@@H](C(=O)NCC(N)=O)NC(=O)[C@H](CCCCNC(=O)N(C)C[C@H](O)[C@@H](O)[C@H](O)[C@H](O)CO)NC(=O)[C@H](Cc2c[nH]cn2)NC(=O)[C@H](Cc2ccc(O)cc2)NC(=O)[C@H](Cc2cccc3ccccc23)NC1=O, cyclic peptide; C-terminal G is a linker) [TGFb1_016]
1.07 | 21.7 | 60.2 | 97.2 | 100 | – | – | – | – | – | – | {CH2CO}-F[Trp(7-aza)]VVNV[4Pal]D[KCOpipzaa][Gly(NCH2CH2Ph)]V[1Nal]YHVCG-NH2 (thioether N-16; SMILES CC(C)[C@@H]1NC(=O)CN(CCc2ccccc2)C(=O)[C@H](CCCCNC(=O)N2CCN(CC(=O)O)CC2)NC(=O)[C@H](CC(=O)O)NC(=O)[C@H](Cc2ccncc2)NC(=O)[C@H](C(C)C)NC(=O)[C@H](CC(N)=O)NC(=O)[C@H](C(C)C)NC(=O)[C@H](C(C)C)NC(=O)[C@H](Cc2c[nH]c3ncccc23)NC(=O)[C@H](Cc2ccccc2)NC(=O)CSC[C@@H](C(=O)NCC(N)=O)NC(=O)[C@H](C(C)C)NC(=O)[C@H](Cc2c[nH]cn2)NC(=O)[C@H](Cc2ccc(O)cc2)NC(=O)[C@H](Cc2cccc3ccccc23)NC1=O, cyclic peptide; C-terminal G is a linker) [TGFb1_017]
1.42 | 22.2 | 61 | 97.6 | 99.9 | – | – | – | – | – | – | {CH2CO}-F[Trp(7-aza)]VVNV[4Pal]D[KCOmeglumine][Gly(NCH2CH2Ph)]V[1Nal]YHVCG-NH2 (thioether N-16; SMILES CC(C)[C@@H]1NC(=O)CN(CCc2ccccc2)C(=O)[C@H](CCCCNC(=O)N(C)C[C@H](O)[C@@H](O)[C@H](O)[C@H](O)CO)NC(=O)[C@H](CC(=O)O)NC(=O)[C@H](Cc2ccncc2)NC(=O)[C@H](C(C)C)NC(=O)[C@H](CC(N)=O)NC(=O)[C@H](C(C)C)NC(=O)[C@H](C(C)C)NC(=O)[C@H](Cc2c[nH]c3ncccc23)NC(=O)[C@H](Cc2ccccc2)NC(=O)CSC[C@@H](C(=O)NCC(N)=O)NC(=O)[C@H](C(C)C)NC(=O)[C@H](Cc2c[nH]cn2)NC(=O)[C@H](Cc2ccc(O)cc2)NC(=O)[C@H](Cc2cccc3ccccc23)NC1=O, cyclic peptide; C-terminal G is a linker) [TGFb1_018]
1.11 | – | – | – | – | 2.53 | 9.14 | 28.4 | 59.4 | 84.9 | 95.5 | {CH2CO}-F[1Nal]VVNV[4Pal]DD[Gly(NCH2CH2Ph)]V[1Nal]YHECG-NH2 (thioether N-16; SMILES CC(C)[C@@H]1NC(=O)CN(CCc2ccccc2)C(=O)[C@H](CC(=O)O)NC(=O)[C@H](CC(=O)O)NC(=O)[C@H](Cc2ccncc2)NC(=O)[C@H](C(C)C)NC(=O)[C@H](CC(N)=O)NC(=O)[C@H](C(C)C)NC(=O)[C@H](C(C)C)NC(=O)[C@H](Cc2cccc3ccccc23)NC(=O)[C@H](Cc2ccccc2)NC(=O)CSC[C@@H](C(=O)NCC(N)=O)NC(=O)[C@H](CCC(=O)O)NC(=O)[C@H](Cc2c[nH]cn2)NC(=O)[C@H](Cc2ccc(O)cc2)NC(=O)[C@H](Cc2cccc3ccccc23)NC1=O, cyclic peptide; C-terminal G is a linker) [TGFb1_027]
1.31 | – | – | – | – | 0.94 | 6.17 | 20.4 | 47.6 | 73.9 | 91.7 | {CH2CO}-F[1Nal]V[KCOmeglumine]NV[4Pal]DD[Gly(NCH2CH2Ph)]V[1Nal]YHECG-NH2 (thioether N-16; SMILES CC(C)[C@@H]1NC(=O)CN(CCc2ccccc2)C(=O)[C@H](CC(=O)O)NC(=O)[C@H](CC(=O)O)NC(=O)[C@H](Cc2ccncc2)NC(=O)[C@H](C(C)C)NC(=O)[C@H](CC(N)=O)NC(=O)[C@H](CCCCNC(=O)N(C)C[C@H](O)[C@@H](O)[C@H](O)[C@H](O)CO)NC(=O)[C@H](C(C)C)NC(=O)[C@H](Cc2cccc3ccccc23)NC(=O)[C@H](Cc2ccccc2)NC(=O)CSC[C@@H](C(=O)NCC(N)=O)NC(=O)[C@H](CCC(=O)O)NC(=O)[C@H](Cc2c[nH]cn2)NC(=O)[C@H](Cc2ccc(O)cc2)NC(=O)[C@H](Cc2cccc3ccccc23)NC1=O, cyclic peptide; C-terminal G is a linker) [TGFb1_028]

— US20250034212A1, “PEPTIDE” (PEPTIDREAM INC., priority 2021, published 2025)
